According to IntAct's records for PubMed 22801494:

B1: Interferon-induced, double-stranded RNA-activated protein kinase (Homo sapiens), P19525 (parent)
chain: MAGDLSAGFFMEELNTYRQKQGVVLKYQELPNSGPPHDRRFTFQVIIDGREFPEGEGRSKKEAKNAAAKLAVEILNKEKKAVSPLLLTTTNSSEGLSMGNYIGLINRIAQKKRLTVNYEQCASGVHGPEGFHYKCKMGQKEYSIGTGSTKQEAKQLAAKLAYLQILSEETSVKSDYLSSGSFATTCESQSNSLVTSTLASESSSEGDFSADTSEINSNSDSLNSSSLLMNGLRNNQRKAKRSLAPRFDLPDMKETKYTVDKRFGMDFKEIELIGSGGFGQVFKAKHRIDGKTYVIKRVKYNNEKAEREVKALAKLDHVNIVHYNGCWDGFDYDPETSDDSLESSDYDPENSKNSSRSKTKCLFIQMEFCDKGTLEQWIEKRRGEKLDKVLALELFEQITKGVDYIHSKKLIHRDLKPSNIFLVDTKQVKIGDFGLVTSLKNDGKRTRSKGTLRYMSPEQISSQDYGKEVDLYALGLILAELLHVCDTAFETSKFFTDLRDGIISDIFDKKEKTLLQKLLSKKPEDRPNTSEILRTLTVWKKSPEKNERHTC

Variants of: B1
Conditions: with nlrp3_human NLRP3, Q96P20
Chain of nlrp3_human NLRP3, Q96P20 (Q96P20 whole entry): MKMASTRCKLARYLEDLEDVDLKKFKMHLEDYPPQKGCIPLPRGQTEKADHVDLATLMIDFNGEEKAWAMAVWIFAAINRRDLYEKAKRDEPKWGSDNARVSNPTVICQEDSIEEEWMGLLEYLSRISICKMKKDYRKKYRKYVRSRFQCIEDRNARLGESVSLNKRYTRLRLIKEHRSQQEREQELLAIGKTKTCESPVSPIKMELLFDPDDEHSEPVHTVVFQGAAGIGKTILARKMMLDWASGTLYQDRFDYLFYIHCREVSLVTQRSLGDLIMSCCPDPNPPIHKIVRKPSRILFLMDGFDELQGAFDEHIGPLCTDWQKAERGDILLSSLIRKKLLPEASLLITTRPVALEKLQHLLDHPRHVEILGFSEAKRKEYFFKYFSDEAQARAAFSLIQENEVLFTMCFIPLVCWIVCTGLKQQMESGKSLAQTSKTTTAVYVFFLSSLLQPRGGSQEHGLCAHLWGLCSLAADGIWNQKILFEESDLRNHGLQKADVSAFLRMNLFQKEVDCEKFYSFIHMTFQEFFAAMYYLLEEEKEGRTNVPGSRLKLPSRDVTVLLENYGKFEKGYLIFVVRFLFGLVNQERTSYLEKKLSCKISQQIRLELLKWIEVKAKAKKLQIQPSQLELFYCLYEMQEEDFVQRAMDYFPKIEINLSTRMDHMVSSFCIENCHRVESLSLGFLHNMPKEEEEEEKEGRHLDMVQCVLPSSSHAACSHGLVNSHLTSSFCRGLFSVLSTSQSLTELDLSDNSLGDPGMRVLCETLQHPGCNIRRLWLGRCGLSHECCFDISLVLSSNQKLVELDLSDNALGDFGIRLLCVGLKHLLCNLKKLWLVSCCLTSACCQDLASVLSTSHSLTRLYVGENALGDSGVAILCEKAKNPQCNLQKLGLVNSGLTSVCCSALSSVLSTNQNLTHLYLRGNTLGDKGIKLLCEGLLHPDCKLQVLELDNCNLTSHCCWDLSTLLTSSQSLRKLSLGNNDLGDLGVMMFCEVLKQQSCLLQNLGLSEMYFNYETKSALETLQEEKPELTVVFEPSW

Row | effect of a mutation on the interaction | Variant
1 | disrupting interaction strength | K296R
